{"source": "patent US20230365714A1", "about": "(published 2023)", "binders": {"B1": {"name": "chIgG1-ROR2-A (antibody, V domains shown)", "VH": "QSVEESGGRLVTPGTPLTLTCTVSGFSLSSYSMSWVRQAPGKGLEWIGVIYVNSKTWYANWAKGRFTISKTSTTVDLKITSPTTEDTATYFCARGDAGYTTNSWLWGPGTLVTVSS", "VL": "AFELTQTPASVSEPVGGTVTIKCQASESIDNYCSWYQQKPGQPPKLLIYQAFKLASGVPSRFRGSGSGTQFTLTISDLESDDAATYYCQSYSGISTTAFGGGTEVVVK", "notes": "Rabbit-human chimeric antibody; also called ROR2 specific antibody A"}}, "key": {"[1]": {"target": "T1, ROR211 shuffle variant (Ig-like domain of ROR2, CRD and kringle domain of ROR1) (human (ROR1/ROR2 chimera), UniProt Q01973 18-937)", "T1 construct": "Transiently expressed on CHO cells", "T1 chain": "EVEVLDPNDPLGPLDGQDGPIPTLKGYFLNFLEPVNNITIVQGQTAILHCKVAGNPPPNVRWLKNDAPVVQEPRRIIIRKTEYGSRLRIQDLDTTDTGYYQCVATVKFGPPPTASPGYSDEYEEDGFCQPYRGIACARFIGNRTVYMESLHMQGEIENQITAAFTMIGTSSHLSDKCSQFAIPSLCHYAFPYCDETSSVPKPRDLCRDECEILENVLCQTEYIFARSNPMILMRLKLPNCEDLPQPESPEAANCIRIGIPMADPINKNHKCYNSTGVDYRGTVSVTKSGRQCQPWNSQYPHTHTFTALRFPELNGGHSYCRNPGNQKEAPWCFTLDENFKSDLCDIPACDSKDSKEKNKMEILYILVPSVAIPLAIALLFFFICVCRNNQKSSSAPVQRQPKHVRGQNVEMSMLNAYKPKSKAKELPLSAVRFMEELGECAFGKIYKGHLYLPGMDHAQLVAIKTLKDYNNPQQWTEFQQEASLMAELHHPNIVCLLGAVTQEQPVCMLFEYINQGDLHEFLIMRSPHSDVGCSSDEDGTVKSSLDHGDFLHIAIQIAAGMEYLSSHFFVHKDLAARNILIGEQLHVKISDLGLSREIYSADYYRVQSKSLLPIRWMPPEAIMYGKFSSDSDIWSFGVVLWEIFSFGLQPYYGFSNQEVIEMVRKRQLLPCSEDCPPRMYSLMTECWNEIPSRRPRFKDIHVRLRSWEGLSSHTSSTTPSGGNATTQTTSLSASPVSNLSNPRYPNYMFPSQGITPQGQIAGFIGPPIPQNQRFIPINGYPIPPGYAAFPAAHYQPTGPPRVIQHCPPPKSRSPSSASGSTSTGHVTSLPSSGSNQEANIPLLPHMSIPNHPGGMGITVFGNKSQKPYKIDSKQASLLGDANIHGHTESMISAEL", "experiment": "cell imaging (CellInsight) on CHO cells expressing the shuffle construct", "protocol": "Binding was determined […] using a cell imaging screening system (Celllnsight, Thermo Fisher) as per manufacturer's recommendations. In short, CHO cells expressing shuffle constructs ROR112, ROR121, ROR122, ROR211 or ROR221 (3,000 cells/well in 384-well plates) were incubated with antibody or control samples for 18 h at 37° C./5% CO₂, washed and incubated with an Alexa488-labeled detection antibody for 4 h. Hoechst dye was added and fluorescence images were collected, measuring total spot intensity (RFU)."}, "[2]": {"target": "T2, his-tagged ROR2 extracellular domain (ROR2-ECD, G&P Biosciences, cat. no. FCL0192) (human, UniProt Q01974 34-403)", "T2 construct": "Bought protein; also called human ROR2-ECD; recombinant human ROR2-ECD; not shown: his tag", "experiment": "BLI (Octet HTX), antibody on anti-human IgG Fc sensor, ROR2-ECD as analyte", "protocol": "Experiments were carried out while shaking at 1,000 RPM at 30° C.\nAnti-Human IgG Fc Capture (AHC) biosensors (ForteBio, cat. no. 18-5060) were pre-conditioned by exposure to 10 mM glycine (Riedel-de Haen, cat. no. 15527) buffer pH 1.7 for 5 s, followed by neutralization in Sample Diluent (ForteBio, cat. no. 18-1048) for 5 s; both steps were repeated 5 times. Next, AHC sensors were loaded with the antibody (2.5 μg/mL in Sample diluent) for 600 s. After a baseline measurement in Sample Diluent (300 s), the association (1,000 s) and dissociation (1,000 s) of a commercially available his-tagged ROR2 extracellular domain (ROR2-ECD, G&P Biosciences, cat. no. FCL0192) was determined using a concentration range of 6.25-400 nM with two-fold dilution steps in Sample Diluent. The calculated molecular mass of ROR2 ECD based on their amino acid sequences of 42.7 kDa was used for calculations. For each antibody a reference sensor was used, which was incubated with Sample Diluent instead of antigen. AHC sensors were regenerated by exposure to 10 mM glycine buffer pH 1.7 for 5 s, followed by neutralization in Sample Diluent for 5 s; both steps were repeated twice. Subsequently sensors were loaded again with antibody for the next cycle of kinetics measurements.\nThe Y-axis was aligned to the last 10 s of the baseline, Interstep Correction alignment to dissociation and Savitzky-Golay filtering were applied."}}}
{"binder": "B1", "values": [{"measurement": "RFU (total spot intensity)", "setting": "[1]", "result": 0, "unit": "RFU"}, {"measurement": "binding result", "setting": "[1]", "result": "no binding (tested: RFU = 0)"}, {"measurement": "Kd", "setting": "[2]", "result": 1.6, "unit": "nM"}, {"measurement": "koff", "setting": "[2]", "result": 0.00095, "unit": "s⁻¹"}, {"measurement": "kon", "setting": "[2]", "result": 610000, "unit": "M⁻¹ s⁻¹"}]}
